By stoichiometry N is commonly meant the number of molecules, sites or subunits per partner or assembly. As usually defined, the Kd is the concentration at which binding is half-saturated. The low end stands for tighter binding, the high end for weaker binding.

The series “SEC-MALS” concerns the molecule itself. Briefly: SEC-MALS. For orientation: In gel filtration, larger molecules generally elute earlier.
The series “atomic force microscopy” concerns the molecule itself. Kind of series: atomic force microscopy.
The next series addresses T1, DmGen (1-518)-His (Drosophila melanogaster, UniProt Q9VRJ0 1-518).
T1 sequence: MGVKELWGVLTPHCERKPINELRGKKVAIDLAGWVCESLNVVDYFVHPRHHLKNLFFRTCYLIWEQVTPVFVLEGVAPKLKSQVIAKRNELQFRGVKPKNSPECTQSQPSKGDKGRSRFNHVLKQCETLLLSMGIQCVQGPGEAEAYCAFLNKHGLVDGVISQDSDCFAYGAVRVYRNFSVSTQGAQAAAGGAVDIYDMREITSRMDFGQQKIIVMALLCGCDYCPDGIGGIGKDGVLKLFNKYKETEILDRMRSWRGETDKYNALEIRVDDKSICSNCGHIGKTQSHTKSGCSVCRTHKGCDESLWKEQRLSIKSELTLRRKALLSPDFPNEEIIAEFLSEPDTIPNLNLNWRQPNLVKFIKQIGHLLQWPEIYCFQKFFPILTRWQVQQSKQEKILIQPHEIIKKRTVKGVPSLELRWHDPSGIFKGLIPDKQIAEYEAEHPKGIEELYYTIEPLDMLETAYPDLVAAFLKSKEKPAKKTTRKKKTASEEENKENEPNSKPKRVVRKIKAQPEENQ
Kind of series: EMSA. In general terms: Mobility shift assays separate free from complexed probe on a gel.

B1: truncated DmGen (1-518 aa) with C-terminal hexahistidine tag (enzyme, Drosophila, UniProt Q9VRJ0 1-518, looked up)
chain: T1 sequence
Regarding B1, in the series “SEC-MALS”, the “stoichiometry N” value stood at 2. For the same molecule, in “atomic force microscopy”, the dissociation constant (Kd) was roughly 100 nM.

B2: linear dsDNA (oligos 888/888rc) (dsDNA)
DNA 1: GACGCTGCCGAATTCTGGCGTTAGGAGATACCGATAAGCTTCGGCTTAA
DNA 2: TTAAGCCGAAGCTTATCGGTATCTCCTAACGCCAGAATTCGGCAGCGTC
In the case of B2, the binding result in the series with DmGen (1-518)-His was “no binding”.
